{"source": "patent US20250289897A1", "about": "“LEPTIN RECEPTOR AGONISTIC ANTIBODY AS MONO OR COMBO THERAPIES TO TREAT OBESITY” (ELI LILLY AND COMPANY, priority 2024, published 2025)", "molecular_target": "T1, rat-LEPR (Rattus norvegicus, UniProt Q62959)", "T1 construct": "introducing DNA plasmids encoding full-length LEPR of different species and STAT3-luciferase reporter gene into HEK293 cells; expressed in transfected cells; host or cells: HEK293 (HEK293-STAT3Luc-ratLepR3)", "T1 sequence (Q62959 22-1162)": "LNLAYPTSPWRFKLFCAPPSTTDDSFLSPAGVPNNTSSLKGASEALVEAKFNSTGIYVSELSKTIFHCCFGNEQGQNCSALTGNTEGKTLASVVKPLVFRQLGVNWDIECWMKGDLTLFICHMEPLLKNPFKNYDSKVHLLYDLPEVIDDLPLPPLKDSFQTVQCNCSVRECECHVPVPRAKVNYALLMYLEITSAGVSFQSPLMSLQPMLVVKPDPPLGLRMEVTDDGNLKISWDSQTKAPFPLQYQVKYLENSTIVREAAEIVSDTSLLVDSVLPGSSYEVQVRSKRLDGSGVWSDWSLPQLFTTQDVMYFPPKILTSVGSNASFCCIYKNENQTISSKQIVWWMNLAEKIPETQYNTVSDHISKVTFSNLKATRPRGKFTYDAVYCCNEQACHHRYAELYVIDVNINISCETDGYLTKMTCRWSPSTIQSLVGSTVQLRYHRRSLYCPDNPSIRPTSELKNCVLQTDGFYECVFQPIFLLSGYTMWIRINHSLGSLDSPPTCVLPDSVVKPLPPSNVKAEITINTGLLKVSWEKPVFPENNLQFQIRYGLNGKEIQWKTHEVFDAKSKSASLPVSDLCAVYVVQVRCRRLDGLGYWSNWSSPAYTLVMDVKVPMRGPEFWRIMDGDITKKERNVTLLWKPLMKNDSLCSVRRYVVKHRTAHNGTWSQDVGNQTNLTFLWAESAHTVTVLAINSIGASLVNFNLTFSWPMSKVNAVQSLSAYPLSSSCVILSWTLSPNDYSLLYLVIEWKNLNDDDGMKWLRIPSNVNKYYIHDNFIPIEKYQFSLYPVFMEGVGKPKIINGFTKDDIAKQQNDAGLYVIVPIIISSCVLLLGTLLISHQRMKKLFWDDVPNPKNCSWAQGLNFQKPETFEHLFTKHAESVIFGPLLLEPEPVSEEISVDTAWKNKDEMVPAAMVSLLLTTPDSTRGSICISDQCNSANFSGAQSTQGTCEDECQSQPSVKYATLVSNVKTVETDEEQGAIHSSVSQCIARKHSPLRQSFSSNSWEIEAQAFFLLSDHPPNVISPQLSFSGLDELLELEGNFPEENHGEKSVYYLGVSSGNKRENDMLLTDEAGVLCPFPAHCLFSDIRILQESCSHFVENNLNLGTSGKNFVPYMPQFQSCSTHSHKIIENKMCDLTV", "assay": "STAT3-luciferase reporter assay in HEK293-STAT3Luc-ratLepR3 cells", "format": "cell-based", "description": "LEPR is a cell surface single-pass transmembrane receptor. Activation of LEPR leads to phosphorylation of intracellular STAT3 (pSTAT3) and subsequent target gene transcription. To measure LEPR activation by anti-LEPR antibodies in the present disclosure, five independent STAT-luciferase reporter cell lines were established by introducing DNA plasmids encoding full-length LEPR of different species and STAT3-luciferase reporter gene into HEK293 cells (Table 4). […]\nBefore plating the cells for luciferase assays, the poly-D-Lysine coated 96-well plates (Corning Inc, #354651) were rinsed once with phosphate buffered solution (PBS). […] Cell lysing and One-Glo luciferase substrate solution (Promega, #E6120) were then added to each well, and relative luciferase units (RLUs) were measured on a ClarioStar plate reader. For each reporter cell line, positive control LEPR activation was calculated as the average RLUs stimulated by 20 nM recombinant human leptin protein (SEQ ID NO:27) minus the average RLUs of unstimulated cells and was set as maximum LEPR activation (100%). […]"}
{"substance": "human leptin: recombinant human leptin protein (SEQ ID NO:27), positive control", "values": [{"measurement": "EC50", "setting": "antibodies at concentrations up to 90 nM, read-out: EC50 (nM) ± SEM", "value": "6.29 ± 0.62", "unit": "nM"}, {"measurement": "Agonism (%) ± SEM", "setting": "vs 20 nM recombinant human leptin, antibodies up to 90 nM", "value": 106.1, "unit": "%"}]}
